From patent US20180066066A1 (University of Texas, published 2018)
Where a chain is given by its changes, count along the chain named.

B1: HER3-hMab-A10 (antibody, V domains shown)
VH: QVQLVESGGGLVQPGGSLRLSCSASGFSFSASYYIYWVRQAPGKGLEYIAYITGDDDKRTYYANWAKGRFTISRDTSKNTVYLQMNSLRAEDTAVYYCTRNLPDELWGPGTLVTVSS
VL: DIQMTQTPSTLSASVGDRVTITCQSSESVYSYKNLAWYQQKPGKPPKLLIWQASRLSSGVPSRFSGSGSGTEFTLTISSLQPDDFATYYCQGTYYSSAWDFVFGGGTKVEIK
B2: HER3-hMab-A14 (antibody, V domains shown)
VH: QVQLVESGGGLVQPGGSLRLSCSASGFSFSSSYWICWVRQAPGKGLELIGYIWSGNGATYYASWAKGRFTISRDTSKNTVYLQMNSLRAEDTAVYFCARNYDASGYGIFHLWGPGTLVTVSS
VL: DIQMTQTPSSLSASVGDRVTINCQASQSIVSSYLSWYQQKPGKPPKLLIYSASKLASGVPSRFSGSGSGTDFTLTISSLQPEDFATYYCLYGVDSSNIDNAFGGGTKVEIK
B3: Chi46 (antibody, V domains shown)
VH: EEQLVESGGGLVQPEGSLTLTCTASGFSFSASYYIYWVRQAPGKGLEGIAYITGDDDKRTYYANWAKGRFTISKTSTTVTLQMTSLTAADTATYFCTRNLPDELWGPGTLVTVSS
VL: QAVVTQTPSSVSAAVGGTVTISCQSSESVYSYKNLAWYQQKPGQPPRLLIWQASRLSSGVSSRFSGSGSGTQFTLTISGVQCDDAATYYCQGTYYSSAWDFVFGGGTEVMVE
notes: also called parental rabbit/human Fc chimera of Rab46
B4: Chi1210 (antibody, V domains shown)
VH: QEQLEESGGGLVQPEGSLTLTCTASGFSFSSSYWICWVRQAPGKGLELIGYIWSGNGATYYASWAKGRFTISKTSSTTVTLQMTSVTATDTATYFCARNYDASGYGIFHLWGPGTLVTVSS
VL: AVVMTQTPASVSAAVGGTVTINCQASQSIVSSYLSWYQQKTGQPPKLLIYSASKLASGVPPRFSGSGSGTQFTLTISGVQCDDAATYYCLYGVDSSNIDNAFGGGTEVVVK
notes: also called parental rabbit/human Fc chimera of Rab1210
B5: Rab46 (antibody, V domains shown)
VH: B3 VH
VL: B3 VL
notes: also called Rab46 monoclonal antibody
B6: Rab1210 (antibody, V domains shown)
VH: B4 VH
VL: B4 VL
notes: also called Rab1210 monoclonal antibody
B7: Rab189 (antibody, V domains shown)
VH: QESLEESGGDLVKPEGTLTLTCKASGIGFGYYYYICWVRQAPGKGLEWIACIYTGISDSTYYATWAKGRFAISKTSSTTVTLQMTSLTAADTATYFCARSDPYYTTTYTNTYPTYWNLWGPGTLVTVSS
VL: CAFELTQTPSSVEAAVGGTVTIKCQASQSINNYLAWYQQKTGQPPKLLIYRASTLESGVPSRFKGSGSGTQFTLTISDLECADAATYYCQSYYYSSSNNYYNAFGGGTEVVVK
notes: also called Rab189 monoclonal antibody
B8: Rab774 (antibody, V domains shown)
VH: QSVEESGGRLVTPGTPLTLTCTVSGIDLSTYAMTWVRRAPGKGLEWLGIINRSSKTYLTDWARGRFTISKTSTTVDLKISSPTTEDTATYFCGRVMSPYSVAGGDLWGPGTLVTVSS
VL: QPVLTQSPSASAALGASAKLTCILSSDLSDYTIDWYKHQQGEAPRYLMQLRSDGSYTKGTGVPDRFSGSSSGADRYLVISSVQADDEADYYCGLPYSVEYVFGGGTQLTVT
notes: also called Rab774 monoclonal antibody
B9: HER3-hMab-A9 (antibody, V domains shown)
VH: B1 VH with T76N
VL: B1 VL
B10: HER3-hMab-A11 (antibody, V domains shown)
VH: B1 VH with T76N
VL: B1 VL with D1Q, I2A
B11: HER3-hMab-A12 (antibody, V domains shown)
VH: B1 VH
VL: B1 VL with D1Q, I2A
B12: HER3-hMab-A13 (antibody, V domains shown)
VH: B2 VH with L48Y, T75N
VL: B2 VL
B13: HER3-hMab-A15 (antibody, V domains shown)
VH: B2 VH with L48Y, T75N
VL: B2 VL with D1A, I2V
B14: HER3-hMab-A16 (antibody, V domains shown)
VH: B2 VH
VL: B2 VL with D1A, I2V

What follows are binders tested against T1, human HER3/ErbB3 extracellular domain (human, UniProt P21860 20-643) (assay: SPR, Biacore T-100, HER3 ECD).
T1 construct: extracellular domain; the range 1-643 of M34309 is printed only for the immunogen; also called Human HER3 ECD; recombinant human HER3
T1 sequence (P21860 20-643): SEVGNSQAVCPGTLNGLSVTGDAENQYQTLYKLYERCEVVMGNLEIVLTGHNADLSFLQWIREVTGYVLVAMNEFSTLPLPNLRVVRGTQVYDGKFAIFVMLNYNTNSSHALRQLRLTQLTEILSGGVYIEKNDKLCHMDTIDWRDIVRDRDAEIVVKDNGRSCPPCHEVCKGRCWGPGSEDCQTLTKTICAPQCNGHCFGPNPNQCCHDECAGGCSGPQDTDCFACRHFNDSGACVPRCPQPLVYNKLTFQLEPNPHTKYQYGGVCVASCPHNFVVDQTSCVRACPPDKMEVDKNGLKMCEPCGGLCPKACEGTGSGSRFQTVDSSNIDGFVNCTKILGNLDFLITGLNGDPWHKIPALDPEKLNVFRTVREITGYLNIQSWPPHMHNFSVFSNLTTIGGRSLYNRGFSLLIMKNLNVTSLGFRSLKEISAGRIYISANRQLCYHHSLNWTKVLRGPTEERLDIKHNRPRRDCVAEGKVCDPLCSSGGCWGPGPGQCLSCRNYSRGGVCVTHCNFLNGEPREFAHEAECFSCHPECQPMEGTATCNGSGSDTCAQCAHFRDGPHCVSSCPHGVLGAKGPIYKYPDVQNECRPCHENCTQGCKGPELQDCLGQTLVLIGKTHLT
For B1, the Kd was 1.2 nM, the koff was 0.000169 s⁻¹ and the kon was 141000 M⁻¹ s⁻¹.
In the case of B2, the Kd is reported as 0.862 nM, the koff is reported as 0.000174 s⁻¹ and the kon is reported as 201000 M⁻¹ s⁻¹.
Work on B3 yielded a Kd of 3.32 nM, a koff of 0.000458 s⁻¹ and a kon of 138000 M⁻¹ s⁻¹.
For B4, the Kd was 1.2 nM, the koff was 0.000644 s⁻¹ and the kon was 538000 M⁻¹ s⁻¹.

Each binder was assayed against T2, human HER3 receptor on cells (human, UniProt P21860 20-1342) (assay: cell-based or functional assay).
T2 sequence (P21860 20-1342): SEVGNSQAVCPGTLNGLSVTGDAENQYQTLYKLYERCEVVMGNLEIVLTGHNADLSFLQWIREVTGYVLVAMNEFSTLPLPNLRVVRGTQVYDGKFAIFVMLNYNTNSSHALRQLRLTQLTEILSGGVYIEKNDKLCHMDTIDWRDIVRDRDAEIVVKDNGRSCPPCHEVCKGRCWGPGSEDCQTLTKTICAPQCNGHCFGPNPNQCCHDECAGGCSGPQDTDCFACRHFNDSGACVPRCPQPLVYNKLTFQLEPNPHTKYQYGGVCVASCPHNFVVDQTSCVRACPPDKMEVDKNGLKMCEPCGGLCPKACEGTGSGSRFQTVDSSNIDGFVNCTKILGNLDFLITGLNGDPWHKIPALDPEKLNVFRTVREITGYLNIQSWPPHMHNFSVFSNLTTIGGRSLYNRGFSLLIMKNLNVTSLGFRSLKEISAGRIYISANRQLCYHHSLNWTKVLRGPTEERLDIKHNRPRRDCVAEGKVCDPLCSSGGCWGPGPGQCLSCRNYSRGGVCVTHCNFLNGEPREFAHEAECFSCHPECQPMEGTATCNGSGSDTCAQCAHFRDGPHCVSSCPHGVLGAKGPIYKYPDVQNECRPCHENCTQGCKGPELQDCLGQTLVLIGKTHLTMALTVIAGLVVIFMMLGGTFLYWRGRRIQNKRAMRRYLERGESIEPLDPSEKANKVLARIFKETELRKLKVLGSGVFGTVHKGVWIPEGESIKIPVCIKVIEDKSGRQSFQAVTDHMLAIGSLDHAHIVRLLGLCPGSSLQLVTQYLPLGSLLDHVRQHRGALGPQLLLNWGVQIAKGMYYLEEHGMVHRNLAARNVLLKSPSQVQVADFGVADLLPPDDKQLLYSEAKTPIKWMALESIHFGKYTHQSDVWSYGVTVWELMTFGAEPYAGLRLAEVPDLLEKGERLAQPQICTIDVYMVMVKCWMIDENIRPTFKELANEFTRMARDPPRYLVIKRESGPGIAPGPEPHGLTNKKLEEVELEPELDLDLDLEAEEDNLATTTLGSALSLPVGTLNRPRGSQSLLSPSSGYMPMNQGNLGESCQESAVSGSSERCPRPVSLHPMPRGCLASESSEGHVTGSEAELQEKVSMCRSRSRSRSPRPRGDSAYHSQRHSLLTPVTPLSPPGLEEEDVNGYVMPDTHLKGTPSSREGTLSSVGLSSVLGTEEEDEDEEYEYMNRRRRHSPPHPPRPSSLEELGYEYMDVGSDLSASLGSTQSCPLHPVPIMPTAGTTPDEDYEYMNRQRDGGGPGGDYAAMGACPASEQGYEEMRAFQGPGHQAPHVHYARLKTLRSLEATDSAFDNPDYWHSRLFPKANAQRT
For B1, the “Inhibition of MCF-7 cancer cell proliferation (IC50, µg/ml)” value was 0.181 µg/mL.
In the case of B2, the “Inhibition of MCF-7 cancer cell proliferation (IC50, µg/ml)” value is reported as 0.232 µg/mL.
With B4 the “Inhibition of MCF-7 cancer cell proliferation (IC50, µg/ml)” value was 0.084 µg/mL.

Target: T2, human HER3 receptor on cells
Assay: cell-based or functional assay
Remark: another data set of the same source
B1 was tested, and the “pHER3 inhibition (IC50, µg/ml)” value was 0.0173 µg/ml.
B2 was tested, and the “pHER3 inhibition (IC50, µg/ml)” value was 0.0017 µg/ml.
B3 was tested, and the “pHER3 inhibition (IC50, µg/ml)” value was 0.033 µg/ml.
B4 was tested, and the “pHER3 inhibition (IC50, µg/ml)” value was 0.0035 µg/ml.

Target: T2, human HER3 receptor on cells
Assay: cell-based or functional assay
Remark: another data set of the same source
For B5, the “pAKT inhibition, EC50 (nM)” value was 3.8 nM, the “pERK ½ inhibition, EC50 (nM)” value was 6.2 nM and the “pHER3 inhibition, EC50 (nM)” value was 3.5 nM.
For B6, the “pAKT inhibition, EC50 (nM)” value was 0.4 nM, the “pERK ½ inhibition, EC50 (nM)” value was 1.3 nM and the “pHER3 inhibition, EC50 (nM)” value was 0.7 nM.
B7 was tested, and the “pAKT inhibition, EC50 (nM)” value was 3.6 nM, the “pERK ½ inhibition, EC50 (nM)” value was 5.5 nM and the “pHER3 inhibition, EC50 (nM)” value was 1.7 nM.
B8 was tested, and the “pAKT inhibition, EC50 (nM)” value was 2.3 nM, the “pERK ½ inhibition, EC50 (nM)” value was 3.8 nM and the “pHER3 inhibition, EC50 (nM)” value was 1.8 nM.

What follows are binders tested against T3, Her3/His10 receptor (UniProt P21860 20-643, limits assumed) (assay: AlphaScreen, blocking of biotinylated NRG-1beta binding to Her3/His10 (column head prints EC50, title and text IC50)).
T3 construct: extracellular domain; also called HER3 ECD tagged with 10 histidine (His); not shown: tag of 10 histidines
T3 sequence (P21860 20-643 limits assumed): as the sequence (P21860 20-643) above
Protocol: HER3 ligand neuregulin (NRG1) can bind on HER3 extracellular domain and activates HER3 phosphorylation and down-stream signaling. Blocking ligand binding on HER3 by the selected rabbit HER3 monoclonal antibodies was determined using alpha screen format assay. NRG1 (R&D Systems) was biotinylated using a biotinylation kit (Fisher Scientific) and HER3 ECD was tagged with 10 histidine (His). Purified anti-HER3 Mabs were serially diluted two-fold into an assay buffer made from 25 mM Hepes, 100 mM NaCl, 0.5% BSA and 0.05% Tween20 in an opaque/white, half-well area plate (Costar). Rabbit IgG1 was used as a negative control. Biotinylated NRG-lbeta ligand and Her3/His₁₀ receptor were added sequentially at 10 nM concentration to the assay plate containing serially diluted antibodies. The mixture of receptor, ligand and the antibodies was incubated at room temperature with gentle shaking for 90 minutes. AlphaScreen Streptavidin Donor beads and His-Nickel Acceptor beads were added into the assay at a final concentration of 20 μg/ml each. The assay plates were covered with foil and incubated at room temperature with gentle shaking for 1 hour. The plates were read in EnVision plate reader.
In the case of B5, the IC50 is reported as 0.51 nM.
Binder B6 has an IC50 of 0.1 nM.
Binder B7 has an IC50 of 0.07 nM.
B8 was tested, and the IC50 was 0.52 nM.

Target: T2, human HER3 receptor on cells
Assay: cell-based or functional assay
Remark: another data set of the same source
With B5 the “% Receptor Internalization” value was 39%.
With B6 the “% Receptor Internalization” value was 62%.
With B7 the “% Receptor Internalization” value was 55%.
With B8 the “% Receptor Internalization” value was 60%.

Each binder was assayed against T1, human HER3/ErbB3 extracellular domain (assay: SPR, Biacore T-100; antibody captured by anti-rabbit IgG, recombinant human HER3 as analyte).
Protocol: All experiments were performed at 25° C. at a flow rate of 45 μl/min. To prepare a BIAcore assay, an anti-rabbit IgG antibody (50 μg/ml each in acetate buffer, pH 5.0) was immobilized onto a carboxymethyl dextran sensorchip (CM5) using amine coupling procedures as described by the manufacturer. Purified rabbit Mabs to be tested were diluted at a concentration of 5 μg/ml in 0.5% P20, HBS-EP buffer and injected on FC2 to reach 500 to 1000 RU. FC1 was used as the reference cell. Specific signals correspond to the difference of signals obtained on FC2 versus FC1. The analyte (recombinant human HER3, apparent molecular weight 97 kDa on SDS-PAGE gel) was injected during 90 sec at series of concentration dilutions (100, 50, 25, 12.5, 6.25, and 3.13, 1.56 nM) in 0.5% P20, HBS-EP buffer. These concentrations were prepared from stock solution in 0.5% P20, HBS-EP. The dissociation phase of the analyte was monitored over a 30 minute period. Running buffer was also injected under the same conditions as a double reference. After each running cycle, both flow cells were regenerated by injecting 20 to 45 μl of glycine-HCl buffer pH 1.5. Binding KD on HER3 was calculated by koff/kon kinetic rate for each HER3 monoclonal antibody (Table 2).
B5 was tested, and the Kd was 7.3 nM.
B6 was tested, and the Kd was 1 nM.
In the case of B7, the Kd is reported as 3.6 nM.
For B8, the Kd was 0.16 nM.

These binders were tested against T1, human HER3/ErbB3 extracellular domain (assay: ELISA on human HER3 ECD).
For B9, the EC50 was 3.1 ng/mL.
For B1, the EC50 was 2.6 ng/mL.
B10 showed an EC50 of 2.6 ng/mL.
B11 showed an EC50 of 2.4 ng/mL.
B12 showed an EC50 of 2.5 ng/mL.
B2 gave an EC50 of 1.9 ng/mL.
In the case of B13, the EC50 is reported as 2.4 ng/mL.
In the case of B14, the EC50 is reported as 2.3 ng/mL.
In the case of B3, the EC50 is reported as 2.7 ng/mL.
In the case of B4, the EC50 is reported as 2.6 ng/mL.

Each binder was assayed against T4, Mouse HER3 ECD (mouse, UniProt Q61526 20-641) (assay: ELISA on mouse HER3 ECD; column uncertain).
T4 construct: extracellular domain; also called mouse HER3 ECD domains
T4 sequence (Q61526 20-641): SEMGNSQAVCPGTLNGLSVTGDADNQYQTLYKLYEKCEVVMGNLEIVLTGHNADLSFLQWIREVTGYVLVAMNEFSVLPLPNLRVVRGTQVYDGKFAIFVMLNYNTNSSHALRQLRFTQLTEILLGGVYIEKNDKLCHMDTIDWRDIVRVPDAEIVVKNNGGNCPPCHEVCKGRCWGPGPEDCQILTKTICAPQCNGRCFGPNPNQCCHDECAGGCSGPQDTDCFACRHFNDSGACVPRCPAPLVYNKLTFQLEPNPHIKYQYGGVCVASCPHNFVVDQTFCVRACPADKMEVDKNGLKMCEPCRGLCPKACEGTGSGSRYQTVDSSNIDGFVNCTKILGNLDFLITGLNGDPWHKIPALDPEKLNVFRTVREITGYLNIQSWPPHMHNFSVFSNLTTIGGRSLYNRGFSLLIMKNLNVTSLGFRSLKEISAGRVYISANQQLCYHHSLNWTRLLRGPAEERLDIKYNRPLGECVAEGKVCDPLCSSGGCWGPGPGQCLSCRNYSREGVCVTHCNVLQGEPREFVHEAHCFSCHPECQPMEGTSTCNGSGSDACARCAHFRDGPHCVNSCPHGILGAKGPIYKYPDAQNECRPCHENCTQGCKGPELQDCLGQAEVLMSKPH
B3 gave an EC50 of 5.9 ng/mL.

Each binder was assayed against T4, Mouse HER3 ECD (assay: ELISA on mouse HER3 ECD).
B9 gave an EC50 of 4.3 ng/mL.
B1 gave an EC50 of 5.4 ng/mL.
Binder B10 has an EC50 of 7.9 ng/mL.
For B11, the EC50 was 6.7 ng/mL.
